# Publication PMC5381215 (2017)
# B1: rituximab (antibody, V domains shown)
# VH: QVQLQQPGAELVKPGASVKMSCKASGYTFTSYNMHWVKQTPGRGLEWIGAIYPGNGDTSYNQKFKGKATLTADKSSSTAYMQLSSLTSEDSAVYYCARSTYYGGDWYFNVWGAGTTVTVSA
# VL: QIVLSQSPAILSASPGEKVTMTCRASSSVSYIHWFQQKPGSSPKPWIYATSNLASGVPVRFSGSGSGTSYSLTISRVEAEDAATYYCQQWTSNPPTFGGGTKLEIK
# modifications: AlexaFluor 488 label (only in the ImageStream experiment, a3)
# Assays:
# Experiment in all cases: SPR
# HSA peptide 40 = HSA peptide 40 (human, UniProt P02768)
# HSA peptide 4 = HSA peptide 4 (human, UniProt P02768)
# HSA peptide 13 = HSA peptide 13 (human, UniProt P02768)
binder,measurement,setting,value
B1,Kd,HSA peptide 40,0.52 nM
same,Kd,HSA peptide 4,57 nM
same,Kd,HSA peptide 13,400 nM
